The record followed here is patent US5710244A, “Derivatized calcitonins” (priority 1993, dated 1998).

Numbered stars: 1 amine (or outer) side, 2 acyl side, 3 side chain; on linkers, the order of the positions; unused ones are H or OH. Bridge positions count the residues as written; N and C are the ends. * marks the point of attachment. X1 = 2,2'‑bipyridine‑4,4'‑dicarboxylic acid, O=C(O)c1ccnc(-c2cc(C(=O)*)ccn2)c1; X2 = 2,2'‑bipyridine‑5,5'‑dicarboxylic acid, O=C(O)c1ccc(-c2ccc(C(=O)*)cn2)nc1; Biphenyldicarbonyl(4,4') = O=C(c1ccc(-c2ccc(C(=O)[*:2])cc2)cc1)[*:1]; Nicotinoyl = O=C(c1cccnc1)*

Assay [1] addresses endogenous hamster calcitonin receptor (hamster).
For assay [2], the target named is T1, recombinant human calcitonin receptor (human, UniProt P30988).
T1 sequence: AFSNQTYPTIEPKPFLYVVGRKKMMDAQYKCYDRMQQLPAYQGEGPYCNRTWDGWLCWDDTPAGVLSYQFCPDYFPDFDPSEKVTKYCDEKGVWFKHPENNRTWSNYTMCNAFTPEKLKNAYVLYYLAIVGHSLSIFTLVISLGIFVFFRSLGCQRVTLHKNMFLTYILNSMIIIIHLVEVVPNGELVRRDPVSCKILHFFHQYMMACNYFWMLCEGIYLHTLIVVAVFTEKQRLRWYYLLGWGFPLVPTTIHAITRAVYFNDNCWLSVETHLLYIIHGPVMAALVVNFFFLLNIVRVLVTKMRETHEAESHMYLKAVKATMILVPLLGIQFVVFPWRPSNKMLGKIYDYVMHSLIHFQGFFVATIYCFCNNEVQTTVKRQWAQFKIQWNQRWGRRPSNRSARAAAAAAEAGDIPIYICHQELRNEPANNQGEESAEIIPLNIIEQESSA
The assay can be described thus: cell-based or functional assay.

In the case of “human calcitonin (from UniProt P01258) (peptide)”, the % SCT EC50 (CRE-linked luciferase induction) in assay [1] stood at 5900 % SCT EC50.

B1: isonipecotic acid modified salmon calcitonin (peptide)
peptide: CSNLSTCVLGKLSQELHKLQTYPRTNTGSGTP
modifications: N-terminal amino group acylated with isonipecotic acid (amide linkage); C-terminal amide; disulfide Cys1-Cys7
Regarding B1, the “% SCT EC50 (CRE-linked luciferase induction)” value (“% SCT EC50” for short) in assay [2] was determined as 146 % SCT EC50; in assay [1], 106 % SCT EC50.

B2: DL-pipecolinic acid modified salmon calcitonin (peptide)
peptide: CSNLSTCVLGKLSQELHKLQTYPRTNTGSGTP
modifications: N-terminal amino group acylated with DL-pipecolinic acid (amide linkage); C-terminal amide; disulfide Cys1-Cys7
Turning to B2, the figures for the “% SCT EC50” value in assay [2] and in assay [1] were 230 % SCT EC50 and 147 % SCT EC50, respectively.

B3: Bipyridine-modified Calcitonin (peptide)
peptide: X1-CSNLSTCVLGKLSQELHKLQTYPRTNTGSGTP-NH2
modifications: disulfide 1-7
SMILES: CC(C)C[C@H](NC(=O)[C@H](CCCCN)NC(=O)CNC(=O)[C@H](CC(C)C)NC(=O)[C@@H](NC(=O)[C@@H]1CSSC[C@H](NC(=O)c2ccnc(-c3cc(C(=O)O)ccn3)c2)C(=O)N[C@@H](CO)C(=O)N[C@@H](CC(N)=O)C(=O)N[C@@H](CC(C)C)C(=O)N[C@@H](CO)C(=O)N[C@@H]([C@@H](C)O)C(=O)N1)C(C)C)C(=O)N[C@@H](CO)C(=O)N[C@@H](CCC(N)=O)C(=O)N[C@@H](CCC(=O)O)C(=O)N[C@@H](CC(C)C)C(=O)N[C@@H](Cc1c[nH]cn1)C(=O)N[C@@H](CCCCN)C(=O)N[C@@H](CC(C)C)C(=O)N[C@@H](CCC(N)=O)C(=O)N[C@H](C(=O)N[C@@H](Cc1ccc(O)cc1)C(=O)N1CCC[C@H]1C(=O)N[C@@H](CCCNC(=N)N)C(=O)N[C@H](C(=O)N[C@@H](CC(N)=O)C(=O)N[C@H](C(=O)NCC(=O)N[C@@H](CO)C(=O)NCC(=O)N[C@H](C(=O)N1CCC[C@H]1C(N)=O)[C@@H](C)O)[C@@H](C)O)[C@@H](C)O)[C@@H](C)O
Take B3: the “% SCT EC50” value in assay [2] came out at 97 % SCT EC50; in assay [1] it was 73 % SCT EC50.

B4: Pycolinyl-modified Calcitonin (peptide)
peptide: {picolinic acid}-CSNLSTCVLGKLSQELHKLQTYPRTNTGSGTP-NH2
modifications: disulfide 1-7
Regarding B4, the “% SCT EC50” value in assay [2] is 140 % SCT EC50; in assay [1] it was 98 % SCT EC50.

B5: 2,2'-bipyridine-5,5'-dicarboxylic acid modified salmon calcitonin (peptide)
peptide: X2-CSNLSTCVLGKLSQELHKLQTYPRTNTGSGTP-NH2
modifications: disulfide 1-7
SMILES: CC(C)C[C@H](NC(=O)[C@H](CCCCN)NC(=O)CNC(=O)[C@H](CC(C)C)NC(=O)[C@@H](NC(=O)[C@@H]1CSSC[C@H](NC(=O)c2ccc(-c3ccc(C(=O)O)cn3)nc2)C(=O)N[C@@H](CO)C(=O)N[C@@H](CC(N)=O)C(=O)N[C@@H](CC(C)C)C(=O)N[C@@H](CO)C(=O)N[C@@H]([C@@H](C)O)C(=O)N1)C(C)C)C(=O)N[C@@H](CO)C(=O)N[C@@H](CCC(N)=O)C(=O)N[C@@H](CCC(=O)O)C(=O)N[C@@H](CC(C)C)C(=O)N[C@@H](Cc1c[nH]cn1)C(=O)N[C@@H](CCCCN)C(=O)N[C@@H](CC(C)C)C(=O)N[C@@H](CCC(N)=O)C(=O)N[C@H](C(=O)N[C@@H](Cc1ccc(O)cc1)C(=O)N1CCC[C@H]1C(=O)N[C@@H](CCCNC(=N)N)C(=O)N[C@H](C(=O)N[C@@H](CC(N)=O)C(=O)N[C@H](C(=O)NCC(=O)N[C@@H](CO)C(=O)NCC(=O)N[C@H](C(=O)N1CCC[C@H]1C(N)=O)[C@@H](C)O)[C@@H](C)O)[C@@H](C)O)[C@@H](C)O
Take B5: the entries for the “% SCT EC50” value in assay [2] and in assay [1] were 199 % SCT EC50 and 125 % SCT EC50, respectively.

B6: 4-4'-biphenyldicarboxylic acid modified salmon calcitonin (peptide)
peptide: {Biphenyldicarbonyl(4,4')}-CSNLSTCVLGKLSQELHKLQTYPRTNTGSGTP-NH2
modifications: disulfide 1-7
SMILES: CC(C)C[C@H](NC(=O)[C@H](CCCCN)NC(=O)CNC(=O)[C@H](CC(C)C)NC(=O)[C@@H](NC(=O)[C@@H]1CSSC[C@H](NC(=O)c2ccc(-c3ccc(C(=O)O)cc3)cc2)C(=O)N[C@@H](CO)C(=O)N[C@@H](CC(N)=O)C(=O)N[C@@H](CC(C)C)C(=O)N[C@@H](CO)C(=O)N[C@@H]([C@@H](C)O)C(=O)N1)C(C)C)C(=O)N[C@@H](CO)C(=O)N[C@@H](CCC(N)=O)C(=O)N[C@@H](CCC(=O)O)C(=O)N[C@@H](CC(C)C)C(=O)N[C@@H](Cc1c[nH]cn1)C(=O)N[C@@H](CCCCN)C(=O)N[C@@H](CC(C)C)C(=O)N[C@@H](CCC(N)=O)C(=O)N[C@H](C(=O)N[C@@H](Cc1ccc(O)cc1)C(=O)N1CCC[C@H]1C(=O)N[C@@H](CCCNC(=N)N)C(=O)N[C@H](C(=O)N[C@@H](CC(N)=O)C(=O)N[C@H](C(=O)NCC(=O)N[C@@H](CO)C(=O)NCC(=O)N[C@H](C(=O)N1CCC[C@H]1C(N)=O)[C@@H](C)O)[C@@H](C)O)[C@@H](C)O)[C@@H](C)O
As for B6, the “% SCT EC50” value in assay [2] was 450 % SCT EC50; in assay [1], 341 % SCT EC50.

B7: nipecotic acid modified salmon calcitonin (peptide)
peptide: {nipecotic acid}-CSNLSTCVLGKLSQELHKLQTYPRTNTGSGTP-NH2
modifications: disulfide 1-7
With B7, the figures for the “% SCT EC50” value in assay [2] and in assay [1] were 243 % SCT EC50 and 152 % SCT EC50, respectively.

B8: Nicotinic acid-modified Calcitonin (peptide)
peptide: Nicotinoyl-CSNLSTCVLGKLSQELHKLQTYPRTNTGSGTP-NH2
modifications: disulfide 1-7
SMILES: CC(C)C[C@H](NC(=O)[C@H](CCCCN)NC(=O)CNC(=O)[C@H](CC(C)C)NC(=O)[C@@H](NC(=O)[C@@H]1CSSC[C@H](NC(=O)c2cccnc2)C(=O)N[C@@H](CO)C(=O)N[C@@H](CC(N)=O)C(=O)N[C@@H](CC(C)C)C(=O)N[C@@H](CO)C(=O)N[C@@H]([C@@H](C)O)C(=O)N1)C(C)C)C(=O)N[C@@H](CO)C(=O)N[C@@H](CCC(N)=O)C(=O)N[C@@H](CCC(=O)O)C(=O)N[C@@H](CC(C)C)C(=O)N[C@@H](Cc1c[nH]cn1)C(=O)N[C@@H](CCCCN)C(=O)N[C@@H](CC(C)C)C(=O)N[C@@H](CCC(N)=O)C(=O)N[C@H](C(=O)N[C@@H](Cc1ccc(O)cc1)C(=O)N1CCC[C@H]1C(=O)N[C@@H](CCCNC(=N)N)C(=O)N[C@H](C(=O)N[C@@H](CC(N)=O)C(=O)N[C@H](C(=O)NCC(=O)N[C@@H](CO)C(=O)NCC(=O)N[C@H](C(=O)N1CCC[C@H]1C(N)=O)[C@@H](C)O)[C@@H](C)O)[C@@H](C)O)[C@@H](C)O
As to B8, the “% SCT EC50” value was determined as 112 % SCT EC50 in assay [2] and 71 % SCT EC50 in assay [1].
